Source: paper PMC7195491
Several values for one entry are separate records, joined by “and”; a condition that tells them apart may be missing. Equal values may be shown once. Read-outs that look alike come from different tables or passages of the source.

Legend:
[1] = molecular target: DIP-α (Dpr Interacting Protein alpha), extracellular region (Drosophila melanogaster) (UniProt Q9W4R3); experiment: SPR; Biacore T100, CM4 chip; DIPs and DIP mutants immobilised by amine coupling, Dprs as analytes; 25 °C; 10 mM Tris-HCl pH 7.2, 150 mM NaCl, 1 mM EDTA, 1 mg/mL BSA, 0.01% Tween-20; duplicate responses fit globally to a 1:1 model; Rmax fixed for KDs > 100 μM, lower limit listed for KDs > 300 μM
[2] = molecular target: DIP-β (isoformG), extracellular region (Drosophila melanogaster); experiment: as above
[3] = molecular target: DIP-α K10Q D29S {K81Q D129S}, extracellular region (Drosophila melanogaster) (UniProt Q9W4R3); experiment: as above
[4] = molecular target: DIP-α G4L {G74L}, extracellular region (Drosophila melanogaster) (UniProt Q9W4R3); experiment: as above
[5] = molecular target: DIP-α K10Q {K81Q}, extracellular region (Drosophila melanogaster) (UniProt Q9W4R3); experiment: as above
[6] = molecular target: DIP-α K10Q S32D {K81Q S133D}, extracellular region (Drosophila melanogaster) (UniProt Q9W4R3); experiment: as above
[7] = molecular target: DIP-α I16A {I91A}, extracellular region (Drosophila melanogaster) (UniProt Q9W4R3); experiment: as above
[8] = molecular target: DIP-α A11T {A82T}, extracellular region (Drosophila melanogaster) (UniProt Q9W4R3); experiment: as above
[9] = molecular target: DIP-α K10Q G4S {K81Q G74S}, extracellular region (Drosophila melanogaster) (UniProt Q9W4R3); experiment: as above
[10] = molecular target: DIP-α N19D {N94D}, extracellular region (Drosophila melanogaster) (UniProt Q9W4R3); experiment: as above
[11] = molecular target: DIP-α (Dpr Interacting Protein alpha), extracellular region (Drosophila melanogaster) (UniProt Q9W4R3); experiment: as above; remark: listed apart in the source
[12] = molecular target: DIP-α A7K {A78K}, extracellular region (Drosophila melanogaster) (UniProt Q9W4R3); experiment: as above
[13] = molecular target: DIP-α G4A {G74A}, extracellular region (Drosophila melanogaster) (UniProt Q9W4R3); experiment: as above
[14] = molecular target: DIP-γ (Dpr Interacting Protein gamma), extracellular region (Drosophila melanogaster) (UniProt Q9VAR6); experiment: as above
[15] = molecular target: DIP-γ R22S {R112S}, extracellular region (Drosophila melanogaster) (UniProt Q9VAR6); experiment: as above
[16] = molecular target: DIP-γ R15N {R86N}, extracellular region (Drosophila melanogaster) (UniProt Q9VAR6); experiment: as above
[17] = molecular target: DIP-γ (Dpr Interacting Protein gamma), extracellular region (Drosophila melanogaster) (UniProt Q9VAR6); experiment: as above; remark: listed apart in the source
[18] = molecular target: DIP-γ mutant at position 9 (Drosophila melanogaster); experiment: SPR; Biacore T100, CM4 chip; DIPs and DIP mutants immobilised by amine coupling (760-980 RU), Dprs and Dpr mutants as analytes (three-fold dilution series, up to 81 μM, in some cases up to 27 or 9 μM); 25 °C; 10 mM Tris-HCl pH 7.2, 150 mM NaCl, 1 mM EDTA, 1 mg/mL BSA, 0.01% Tween-20; equilibrium fit, 1:1 model; for KDs > 300 μM a lower limit is listed
[19] = molecular target: DIP-γ (Drosophila melanogaster); experiment: as above
[20] = molecular target: DIP-α K10Q, extracellular region (Drosophila melanogaster); experiment: AUC; sedimentation equilibrium, 25 °C, 10 mM Bis-Tris pH 6.6, 150 mM NaCl, UV 280 nm, global fit (HeteroAnalysis); dimer to monomers; two runs (n 1, 2) and their average
[21] = molecular target: DIP-α K10Q S32D, extracellular region (Drosophila melanogaster); experiment: as above
[22] = molecular target: DIP-α K10Q G4S, extracellular region (Drosophila melanogaster); experiment: as above

DIP-γ (Dpr Interacting Protein gamma), extracellular region (Drosophila melanogaster), sequence (Q9VAR6 entry or part of it): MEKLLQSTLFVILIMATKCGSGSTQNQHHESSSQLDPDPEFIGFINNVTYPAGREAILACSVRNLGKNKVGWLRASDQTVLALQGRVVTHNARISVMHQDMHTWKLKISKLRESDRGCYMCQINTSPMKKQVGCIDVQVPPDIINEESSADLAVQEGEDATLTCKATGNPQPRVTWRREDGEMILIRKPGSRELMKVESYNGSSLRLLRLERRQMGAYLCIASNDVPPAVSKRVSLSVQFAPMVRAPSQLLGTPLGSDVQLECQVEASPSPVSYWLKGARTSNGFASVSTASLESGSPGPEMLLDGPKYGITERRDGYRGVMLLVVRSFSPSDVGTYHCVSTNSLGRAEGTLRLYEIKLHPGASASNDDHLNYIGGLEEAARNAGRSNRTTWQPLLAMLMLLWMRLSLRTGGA
DIP-γ R15N {R86N}, extracellular region (Drosophila melanogaster), sequence (Q9VAR6 entry or part of it R15N {R86N} | R15N R86N): as the sequence (Q9VAR6 entry or part of it) above, with R86N counted along it
DIP-γ R22S {R112S}, extracellular region (Drosophila melanogaster), sequence (Q9VAR6 entry or part of it R22S {R112S} | R22S R112S): as the sequence (Q9VAR6 entry or part of it) above, with R112S counted along it

Dpr10 (Defective proboscis extension response 10), extracellular region (from UniProt M9PF17 1-362) (domain or fragment)
Kd [1]: 1.3 µM | Kd [2]: 33.3 µM | Kd [3]: 41.6 µM | Kd [4]: 45.8 µM | Kd [5]: 31.8 µM | Kd [6]: 39.1 µM | Kd [7]: 56.9 µM | Kd [8]: 18.1 µM | Kd [9]: 68 µM | Kd [10]: 1.4 µM | Kd [11]: 1.4 µM | Kd [12]: 0.28 µM | Kd [13]: 0.9 µM

Dpr11 (Defective proboscis extension response 11), extracellular region (from UniProt Q8MRE6 1-360) (domain or fragment)
Kd [14]: 7.15 µM | Kd [1]: > 500 µM | Kd [2]: 270 µM | Kd [15]: 9.5 µM | Kd [16]: 13.1 µM | Kd [17]: 8.54 µM and 7.12 µM

Dpr11 (domain or fragment)
Kd [18]: 37.2 µM | Kd [19]: 7.9 µM

Dpr6 (Defective proboscis extension response 6), extracellular region (from UniProt M9PC40 1-390) (domain or fragment)
Kd [4]: 23.5 µM | Kd [5]: 18.4 µM | Kd [6]: 26.2 µM | Kd [7]: 80.1 µM | Kd [8]: 10.1 µM | Kd [9]: 101 µM | Kd [10]: 1.05 µM | Kd [12]: 0.46 µM | Kd [13]: 1.1 µM

Dpr11 K31V E29Q G10L {K207V E205Q G157L}, extracellular region (from UniProt Q8MRE6 1-360) (domain or fragment)
Kd [14]: 17.6 µM | Kd [2]: 27.8 µM

DIP-α K10Q, extracellular region (domain or fragment)
Kd [20]: 17.8 µM and 21.6 µM | Kd ([20]; mean): 19.7 µM

DIP-α K10Q S32D, extracellular region (domain or fragment)
Kd [21]: 60.6 µM and 68.3 µM | Kd ([21]; mean): 64.5 µM

DIP-α K10Q G4S, extracellular region (domain or fragment)
Kd [22]: 52 µM and 40.6 µM | Kd ([22]; mean): 46.3 µM
